Experimental data: US20070071724

Target: Nedd8-AMC (Boston Biochem), Q15843
Sequence (Q15843 whole entry, looked up): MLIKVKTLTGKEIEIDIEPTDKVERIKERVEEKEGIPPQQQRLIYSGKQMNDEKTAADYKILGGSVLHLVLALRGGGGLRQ

B1: Uch-L3 (Boston Biochem) (protein)
chain: MEGQRWLPLEANPEVTNQFLKQLGLHPNWQFVDVYGMDPELLSMVPRPVCAVLLLFPITEKYEVFRTEEEEKIKSQGQDVTSSVYFMKQTISNACGTIGLIHAIANNKDKMHFESGSTLKKFLEESVSMSPEERARYLENYDAIRVTHETSAHEGQTEAPSIDEKVDLHFIALVHVDGHLYELDGRKPFPINHGETSDETLLEDAIEVCKKFMERDPDELRFNAIALSAA
hydrolysis of Nedd8-AMC: there was no reduction in hydrolysis of Nedd8-AMC, a ubiquitin-like protein that binds to and is cleaved by Uch-L3, when 20 nM Uch-L3 was incubated with 5 µM LDN
